Reference: the supplement of paper PMC9112550, “Optimization of the antimicrobial peptide Bac7 by deep mutational scanning” (BMC Biology, 2022)

Tested on: Escherichia coli TOP10
Test: shrunken log2 fold change of peptide-encoding DNA abundance (4.5 h post-induction vs induction); higher = less antimicrobial activity (less host growth inhibition)
Conditions: time post-induction: 4.5 h; library: site-saturation at positions 5, 18, 19, 20
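Also: peptides expressed intracellularly from a pBAD plasmid library in pooled LB shake-flask culture, induced with 0.3% L-arabinose, DNA abundance read by NGS, three biological replicates, DESeq2 with apeglm shrinkage.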

| Sequence | shrunken log2 fold change |
| --- | --- |
| RRIRRRPPRLPRPRPRPEIQPRP | 0.0536 |
| RRIRTRPPRLPRPRPRPAGAPRP | 0.164 |
| RRIRDRPPRLPRPRPRPASWPRP | 0.805 |
| RRIRERPPRLPRPRPRPKNHPRP | -0.499 |
| RRIRTRPPRLPRPRPRPVQRPRP | 0.132 |
| RRIRHRPPRLPRPRPRPFPTPRP | -0.0427 |
| RRIRCRPPRLPRPRPRPHLEPRP | 0.0414 |
| RRIRCRPPRLPRPRPRPPQLPRP | 0.329 |
| RRIRGRPPRLPRPRPRPIYGPRP | -0.141 |
| RRIRHRPPRLPRPRPRPSHNPRP | -0.433 |
| RRIRCRPPRLPRPRPRPEGTPRP | 0.137 |
| RRIRMRPPRLPRPRPRPIPNPRP | 0.983 |
| RRIRMRPPRLPRPRPRPRCCPRP | 0.373 |
| RRIRSRPPRLPRPRPRPVHVPRP | -0.0394 |
| RRIRCRPPRLPRPRPRPYQNPRP | -1.1 |
| RRIRIRPPRLPRPRPRPWRRPRP | 1.46 |
| RRIRPRPPRLPRPRPRPRYNPRP | -0.522 |
| RRIRERPPRLPRPRPRPHLWPRP | 2.71 |
| RRIRLRPPRLPRPRPRPSLSPRP | -0.305 |
| RRIRQRPPRLPRPRPRPWCPPRP | -0.261 |
| RRIRQRPPRLPRPRPRPPYIPRP | -0.449 |
| RRIRWRPPRLPRPRPRPHTTPRP | 0.0145 |
| RRIRIRPPRLPRPRPRPMSAPRP | -0.205 |
| RRIRVRPPRLPRPRPRPCHPPRP | -0.0124 |
| RRIRTRPPRLPRPRPRPSQEPRP | -0.184 |

| Sequence | shrunken log2 fold change |
| --- | --- |
| RRIRIRPPRLPRPRPRPSPRPRP | -0.0771 |
| RRIRIRPPRLPRPRPRPAEYPRP | 0.0308 |
| RRIRSRPPRLPRPRPRPKFLPRP | -0.0307 |
| RRIRDRPPRLPRPRPRPNQHPRP | -0.283 |
| RRIRWRPPRLPRPRPRPLTGPRP | -0.396 |
| RRIRHRPPRLPRPRPRPDIQPRP | -0.0379 |
| RRIRWRPPRLPRPRPRPSCYPRP | -0.122 |
| RRIRPRPPRLPRPRPRPSFMPRP | -0.377 |
| RRIRSRPPRLPRPRPRPQHRPRP | -0.222 |
| RRIRNRPPRLPRPRPRPPGGPRP | 0.748 |
| RRIRLRPPRLPRPRPRPLENPRP | 0.0938 |
| RRIRPRPPRLPRPRPRPTAVPRP | 0.362 |
| RRIRIRPPRLPRPRPRPMSTPRP | -0.211 |
| RRIRDRPPRLPRPRPRPVRPPRP | 1.07 |
| RRIRNRPPRLPRPRPRPCPKPRP | 0.0342 |
| RRIRLRPPRLPRPRPRPGHVPRP | 0.0522 |
| RRIRRRPPRLPRPRPRPYTLPRP | -0.34 |
| RRIRYRPPRLPRPRPRPAGTPRP | -0.0595 |
| RRIRFRPPRLPRPRPRPCWVPRP | -0.331 |
| RRIRIRPPRLPRPRPRPAWVPRP | 0.0748 |
| RRIRMRPPRLPRPRPRPTQLPRP | 0.668 |
| RRIRTRPPRLPRPRPRPFNEPRP | -0.311 |
| RRIRMRPPRLPRPRPRPYACPRP | -0.0298 |
| RRIRGRPPRLPRPRPRPKDKPRP | 0.558 |
| RRIRRRPPRLPRPRPRPKVNPRP | 0.468 |

| Sequence | shrunken log2 fold change |
| --- | --- |
| RRIRSRPPRLPRPRPRPGDKPRP | 0.0832 |
| RRIRARPPRLPRPRPRPMEEPRP | -0.0115 |
| RRIRNRPPRLPRPRPRPARCPRP | 0.319 |
| RRIRERPPRLPRPRPRPLQCPRP | -0.254 |
| RRIRSRPPRLPRPRPRPLNQPRP | 0.479 |
| RRIRHRPPRLPRPRPRPCVGPRP | 0.116 |
| RRIRDRPPRLPRPRPRPIQRPRP | -0.01 |
| RRIRLRPPRLPRPRPRPYPEPRP | -0.201 |
| RRIRERPPRLPRPRPRPECNPRP | 0.0631 |
| RRIRPRPPRLPRPRPRPFCHPRP | -0.00162 |
| RRIRNRPPRLPRPRPRPDWLPRP | 0.156 |
| RRIRGRPPRLPRPRPRPPYVPRP | -0.21 |
| RRIRERPPRLPRPRPRPKARPRP | -0.276 |
| RRIRTRPPRLPRPRPRPITLPRP | -0.162 |
| RRIRMRPPRLPRPRPRPYKPPRP | 0.0559 |
| RRIRYRPPRLPRPRPRPQNFPRP | -0.00184 |
| RRIRSRPPRLPRPRPRPSIEPRP | -0.013 |
| RRIRFRPPRLPRPRPRPDQCPRP | -0.0562 |
| RRIRMRPPRLPRPRPRPHPHPRP | 0.187 |
| RRIRPRPPRLPRPRPRPAINPRP | -0.142 |
| RRIRTRPPRLPRPRPRPAEVPRP | -0.108 |
| RRIRGRPPRLPRPRPRPFYNPRP | 0.0314 |
| RRIRIRPPRLPRPRPRPGNYPRP | -0.261 |
| RRIRMRPPRLPRPRPRPCEHPRP | 0.249 |
| RRIRCRPPRLPRPRPRPWYIPRP | -0.331 |

| Sequence | shrunken log2 fold change |
| --- | --- |
| RRIRKRPPRLPRPRPRPEKPPRP | 0.0899 |
| RRIRNRPPRLPRPRPRPMDCPRP | 0.0919 |
| RRIRDRPPRLPRPRPRPLRIPRP | 0.168 |
| RRIRSRPPRLPRPRPRPDGEPRP | 0.0597 |
| RRIRTRPPRLPRPRPRPEIHPRP | -0.0341 |
| RRIRHRPPRLPRPRPRPVTIPRP | -0.311 |
| RRIRHRPPRLPRPRPRPTRNPRP | -0.0346 |
| RRIRHRPPRLPRPRPRPECWPRP | 0.514 |
| RRIRCRPPRLPRPRPRPYNMPRP | -0.188 |
| RRIRPRPPRLPRPRPRPYLFPRP | -0.434 |
| RRIRERPPRLPRPRPRPQQGPRP | -0.219 |
| RRIRFRPPRLPRPRPRPCNTPRP | -0.0482 |
| RRIRKRPPRLPRPRPRPGFYPRP | 0.00129 |
| RRIRGRPPRLPRPRPRPCQLPRP | -0.327 |
| RRIRARPPRLPRPRPRPSKLPRP | -0.118 |
| RRIRVRPPRLPRPRPRPCITPRP | -0.233 |
| RRIRIRPPRLPRPRPRPTAFPRP | -0.532 |
| RRIRYRPPRLPRPRPRPSTEPRP | -0.435 |
| RRIRFRPPRLPRPRPRPVGTPRP | 0.00754 |
| RRIRFRPPRLPRPRPRPVPRPRP | 0.384 |
| RRIRYRPPRLPRPRPRPCRGPRP | -0.157 |
| RRIRARPPRLPRPRPRPYNTPRP | -0.606 |
| RRIRKRPPRLPRPRPRPAVDPRP | -0.0502 |
| RRIRLRPPRLPRPRPRPVGFPRP | 0.212 |
| RRIRHRPPRLPRPRPRPMRRPRP | 0.00585 |

| Sequence | shrunken log2 fold change |
| --- | --- |
| RRIRQRPPRLPRPRPRPDVEPRP | -0.0335 |
| RRIRERPPRLPRPRPRPLKNPRP | -0.477 |
| RRIRARPPRLPRPRPRPGLGPRP | 1.16 |
| RRIRHRPPRLPRPRPRPQLEPRP | 0.0607 |
| RRIRLRPPRLPRPRPRPTNYPRP | -0.251 |
| RRIRWRPPRLPRPRPRPIHTPRP | -0.275 |
| RRIRERPPRLPRPRPRPSNIPRP | -0.662 |
| RRIRWRPPRLPRPRPRPIRCPRP | 0.0257 |
| RRIRARPPRLPRPRPRPIMRPRP | 0.491 |
| RRIRWRPPRLPRPRPRPGQPPRP | 0.326 |
| RRIRVRPPRLPRPRPRPLLRPRP | 0.0947 |
| RRIRGRPPRLPRPRPRPMGAPRP | 0.821 |
| RRIRCRPPRLPRPRPRPTDDPRP | 2.22 |
| RRIRTRPPRLPRPRPRPTMKPRP | -0.334 |
| RRIRMRPPRLPRPRPRPQRAPRP | 0.943 |
| RRIRSRPPRLPRPRPRPSMIPRP | -0.625 |
| RRIRNRPPRLPRPRPRPADFPRP | 0.0143 |
| RRIRWRPPRLPRPRPRPISGPRP | -0.12 |
| RRIRKRPPRLPRPRPRPWMNPRP | -0.00146 |
| RRIRIRPPRLPRPRPRPKPEPRP | 0.0874 |
| RRIRGRPPRLPRPRPRPDHVPRP | 0.0598 |
| RRIRSRPPRLPRPRPRPMQLPRP | 0.115 |
| RRIRRRPPRLPRPRPRPFTPPRP | -0.0158 |
| RRIRIRPPRLPRPRPRPCCNPRP | -0.0118 |
| RRIRARPPRLPRPRPRPMGKPRP | 0.472 |
